This is an account of results in US7101975B1, “Method and composition for inhibition of angiogenesis using antagonists based on MMP-9 and β1 integrins” (University of Southern California, priority 1999, dated 2006).

Entries after “also recorded” stand apart in the source; their conditions may differ. Where no end group is shown, it is not given here.

Assay [1] has as its target MMP-9 (Homo sapiens, UniProt P14780). In words: Solid phase binding assay of synthetic peptides to MMP-9. Conditions: solid phase binding assays, FIG. 7. The protocol:
For example, synthetic peptides were generated and analyzed for binding activity to MMP-9. The binding ability of the peptides was analyzed by solid phase binding assays.

Assay [2] relates to angiogenesis on the CAMs of chick embryos. Kind of assay: Chick embryo CAM angiogenesis assay (bFGF-induced). Type of assay: in vivo. Conditions: 10 day old chick embryos, single IV injection 100 μg 24 h later, counted three days later, FIG. 8B. An excerpt: For example, one assay measures angiogenesis in the chick chorioallantoic membrane (CAM) and is referred to as the CAM assay. The CAM assay has been described in detail by others, and further has been used to measure both angiogenesis and neovascularization of tumor tissues. See Ausprunk et al., Am. J. Pathol., 79:597-618 (1975) and Ossonski et al., Cancer Res., 40:2300-2309 (1980).
Angiogenesis was induced on the CAMs of 10 day old chick embryos with bFGF. Twenty-four hours later the embryos received a single IV injection with 100 μg of FRIP-1 or AAA control peptide. Three days later angiogenesis was quantified by counting the number of blood vessel branch points within the area of the filter disc. […] FIG. 8B is a quantification of the angiogenesis experiments. […] In FIG. 8B, NT corresponds to No bFGF, FRIP-1 to bFGF+FRIP-1 peptide, and AAA to bFGF+control AAA peptide. Data bars represent the mean±standard errors of 5 to 10 embryos per condition.

Chain of MMP-9 (P14780 94-707): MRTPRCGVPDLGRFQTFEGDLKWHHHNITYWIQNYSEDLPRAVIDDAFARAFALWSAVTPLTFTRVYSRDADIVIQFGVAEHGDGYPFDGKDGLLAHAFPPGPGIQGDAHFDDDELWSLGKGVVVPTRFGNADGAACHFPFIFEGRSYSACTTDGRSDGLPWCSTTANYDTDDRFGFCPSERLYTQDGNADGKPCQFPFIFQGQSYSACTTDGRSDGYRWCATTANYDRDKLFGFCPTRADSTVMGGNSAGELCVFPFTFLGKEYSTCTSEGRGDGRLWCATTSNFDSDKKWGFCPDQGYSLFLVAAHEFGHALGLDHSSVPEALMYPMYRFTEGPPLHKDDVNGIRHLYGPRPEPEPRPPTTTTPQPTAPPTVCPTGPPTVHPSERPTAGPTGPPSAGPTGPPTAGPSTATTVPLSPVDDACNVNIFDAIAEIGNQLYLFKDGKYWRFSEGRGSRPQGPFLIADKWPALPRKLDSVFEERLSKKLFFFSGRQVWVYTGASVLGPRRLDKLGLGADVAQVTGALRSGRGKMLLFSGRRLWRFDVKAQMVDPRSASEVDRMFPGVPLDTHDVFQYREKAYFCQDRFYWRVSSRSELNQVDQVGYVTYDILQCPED

“CRAAAGEPQC (cysteine pairing not given here) [control peptide identical to FRIP-1 except that 3 key amino acids were changed, reference compound]”: the “binding to MMP-9” value in assay [1] is “little in any binding ability”.
For “CRLRSGEPQC (cysteine pairing not given here) [synthetic peptide derived from the C-terminal hemopexin-like domain of human MMP-9]”, the “binding to MMP-9” value in assay [1] was “specifically bind to MMP-9; also recorded: binds to MMP-9”. For the same sequence, the “angiogenesis (number of blood vessel branch points within the area of the filter disc)” value in assay [2] was “blocks angiogenesis; also recorded: inhibit angiogenesis”.
Consider “CRAAAAEPQC (cysteine pairing not given here) [control peptide, reference compound]”, for which the “binding to MMP-9” value in assay [1] is “binds with substantially reduced affinity”.
